# In patent US20190185537A1 (AstraZeneca / MedImmune, published 2019):
# Numbered stars: 1 amine (or outer) side, 2 acyl side, 3 side chain; on linkers, the order of the positions; unused ones are H or OH. Side chains are listed from the residue outwards. Ends that are not written are not given here. * marks the point of attachment. γGlu = O=C(O)[C@H](CCC(=O)[*:2])N[*:1]; Palmitoyl = CCCCCCCCCCCCCCCC(=O)*
# T1: human glucose-dependent insulinotropic peptide (gastric inhibitory polypeptide) receptor (human) (UniProt P48546)
# T1 sequence (looked up): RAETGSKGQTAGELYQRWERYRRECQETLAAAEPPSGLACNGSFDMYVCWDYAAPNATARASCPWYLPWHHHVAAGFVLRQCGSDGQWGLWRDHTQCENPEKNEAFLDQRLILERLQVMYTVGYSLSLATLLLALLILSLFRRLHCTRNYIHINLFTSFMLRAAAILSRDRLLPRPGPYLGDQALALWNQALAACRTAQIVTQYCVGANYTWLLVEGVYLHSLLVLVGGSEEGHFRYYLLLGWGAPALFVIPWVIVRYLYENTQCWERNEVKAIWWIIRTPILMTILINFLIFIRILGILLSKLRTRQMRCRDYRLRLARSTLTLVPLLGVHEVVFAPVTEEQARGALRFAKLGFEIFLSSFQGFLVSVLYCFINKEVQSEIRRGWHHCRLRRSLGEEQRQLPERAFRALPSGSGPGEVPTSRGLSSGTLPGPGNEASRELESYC
# Experiments:
# Test in all cases: cell-based or functional assay
# human GLP-1 receptor = human GLP-1 receptor (human, UniProt P43220 24-463)
# human glucagon receptor = human glucagon receptor (human, UniProt P47871 26-477)
# [1] = target: T1, human glucose-dependent insulinotropic peptide (gastric inhibitory polypeptide) receptor (human)
# Sequence of human glucagon receptor (P47871 26-477): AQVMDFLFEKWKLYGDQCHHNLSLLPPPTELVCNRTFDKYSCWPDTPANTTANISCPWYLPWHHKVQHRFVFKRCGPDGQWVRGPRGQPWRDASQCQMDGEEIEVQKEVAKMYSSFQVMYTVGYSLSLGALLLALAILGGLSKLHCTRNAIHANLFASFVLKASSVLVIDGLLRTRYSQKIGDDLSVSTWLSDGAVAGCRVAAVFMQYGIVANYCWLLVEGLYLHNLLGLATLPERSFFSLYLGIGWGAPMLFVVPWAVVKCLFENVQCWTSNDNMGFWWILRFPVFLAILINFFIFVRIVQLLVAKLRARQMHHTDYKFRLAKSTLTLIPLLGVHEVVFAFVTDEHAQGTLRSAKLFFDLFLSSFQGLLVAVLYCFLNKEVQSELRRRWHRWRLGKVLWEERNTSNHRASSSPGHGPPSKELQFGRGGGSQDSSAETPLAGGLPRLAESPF
# Sequence of human GLP-1 receptor (P43220 24-463): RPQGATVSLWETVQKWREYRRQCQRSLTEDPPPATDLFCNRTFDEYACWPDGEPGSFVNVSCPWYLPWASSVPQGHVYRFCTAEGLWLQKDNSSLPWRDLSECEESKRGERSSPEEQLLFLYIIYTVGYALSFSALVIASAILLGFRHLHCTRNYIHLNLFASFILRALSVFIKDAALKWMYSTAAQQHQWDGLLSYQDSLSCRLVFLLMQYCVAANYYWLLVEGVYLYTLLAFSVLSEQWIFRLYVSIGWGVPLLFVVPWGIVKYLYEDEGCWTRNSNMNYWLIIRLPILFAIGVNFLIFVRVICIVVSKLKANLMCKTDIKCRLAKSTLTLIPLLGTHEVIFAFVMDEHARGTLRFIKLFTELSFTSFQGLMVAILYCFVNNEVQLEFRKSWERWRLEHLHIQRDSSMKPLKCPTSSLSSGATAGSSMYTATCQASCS
cAMP EC50 (assay 1) (human GLP-1 receptor) [nM],cAMP EC50 (assay 1) (human glucagon receptor) [nM],cAMP EC50 (assay 1) [1] [nM],Binder
0.0512,0.00831,88.3,HSQGTFTSDYSRK([γGlu-Palmitoyl])LDSERARDFVAWLVAGG-OH (N-terminus assumed; SMILES CCCCCCCCCCCCCCCC(=O)N[C@@H](CCC(=O)NCCCC[C@H](NC(=O)[C@H](CCCNC(=N)N)NC(=O)[C@H](CO)NC(=O)[C@H](Cc1ccc(O)cc1)NC(=O)[C@H](CC(=O)O)NC(=O)[C@H](CO)NC(=O)[C@@H](NC(=O)[C@H](Cc1ccccc1)NC(=O)[C@@H](NC(=O)CNC(=O)[C@H](CCC(N)=O)NC(=O)[C@H](CO)NC(=O)[C@@H](N)Cc1c[nH]cn1)[C@@H](C)O)[C@@H](C)O)C(=O)N[C@@H](CC(C)C)C(=O)N[C@@H](CC(=O)O)C(=O)N[C@@H](CO)C(=O)N[C@@H](CCC(=O)O)C(=O)N[C@@H](CCCNC(=N)N)C(=O)N[C@@H](C)C(=O)N[C@@H](CCCNC(=N)N)C(=O)N[C@@H](CC(=O)O)C(=O)N[C@@H](Cc1ccccc1)C(=O)N[C@H](C(=O)N[C@@H](C)C(=O)N[C@@H](Cc1c[nH]c2ccccc12)C(=O)N[C@@H](CC(C)C)C(=O)N[C@H](C(=O)N[C@@H](C)C(=O)NCC(=O)NCC(=O)O)C(C)C)C(C)C)C(=O)O) [g842]
0.0296,0.0108,32.9,HSQGTFTSDYSKYK([γGlu-Palmitoyl])DSRSARDFVEWLVAGG-NH2 (N-terminus assumed; SMILES CCCCCCCCCCCCCCCC(=O)N[C@@H](CCC(=O)NCCCC[C@H](NC(=O)[C@H](Cc1ccc(O)cc1)NC(=O)[C@H](CCCCN)NC(=O)[C@H](CO)NC(=O)[C@H](Cc1ccc(O)cc1)NC(=O)[C@H](CC(=O)O)NC(=O)[C@H](CO)NC(=O)[C@@H](NC(=O)[C@H](Cc1ccccc1)NC(=O)[C@@H](NC(=O)CNC(=O)[C@H](CCC(N)=O)NC(=O)[C@H](CO)NC(=O)[C@@H](N)Cc1c[nH]cn1)[C@@H](C)O)[C@@H](C)O)C(=O)N[C@@H](CC(=O)O)C(=O)N[C@@H](CO)C(=O)N[C@@H](CCCNC(=N)N)C(=O)N[C@@H](CO)C(=O)N[C@@H](C)C(=O)N[C@@H](CCCNC(=N)N)C(=O)N[C@@H](CC(=O)O)C(=O)N[C@@H](Cc1ccccc1)C(=O)N[C@H](C(=O)N[C@@H](CCC(=O)O)C(=O)N[C@@H](Cc1c[nH]c2ccccc12)C(=O)N[C@@H](CC(C)C)C(=O)N[C@H](C(=O)N[C@@H](C)C(=O)NCC(=O)NCC(N)=O)C(C)C)C(C)C)C(=O)O) [g803]
0.0231,62,817,HGEGTFTSDYSKYK([γGlu-Palmitoyl])DSRRAQDFVQWLVAGG-NH2 (N-terminus assumed; SMILES CCCCCCCCCCCCCCCC(=O)N[C@@H](CCC(=O)NCCCC[C@H](NC(=O)[C@H](Cc1ccc(O)cc1)NC(=O)[C@H](CCCCN)NC(=O)[C@H](CO)NC(=O)[C@H](Cc1ccc(O)cc1)NC(=O)[C@H](CC(=O)O)NC(=O)[C@H](CO)NC(=O)[C@@H](NC(=O)[C@H](Cc1ccccc1)NC(=O)[C@@H](NC(=O)CNC(=O)[C@H](CCC(=O)O)NC(=O)CNC(=O)[C@@H](N)Cc1c[nH]cn1)[C@@H](C)O)[C@@H](C)O)C(=O)N[C@@H](CC(=O)O)C(=O)N[C@@H](CO)C(=O)N[C@@H](CCCNC(=N)N)C(=O)N[C@@H](CCCNC(=N)N)C(=O)N[C@@H](C)C(=O)N[C@@H](CCC(N)=O)C(=O)N[C@@H](CC(=O)O)C(=O)N[C@@H](Cc1ccccc1)C(=O)N[C@H](C(=O)N[C@@H](CCC(N)=O)C(=O)N[C@@H](Cc1c[nH]c2ccccc12)C(=O)N[C@@H](CC(C)C)C(=O)N[C@H](C(=O)N[C@@H](C)C(=O)NCC(=O)NCC(N)=O)C(C)C)C(C)C)C(=O)O) [g733]
